Test results taken from patent US20260184777A1 (BEIJING SUNGEN BIOMEDICAL TECHNOLOGY, published 2026).
Positions count from the first letter of the chain named.

B1: CM-2 (antibody, human IgG4 S228P, lambda, V domains shown)
VH: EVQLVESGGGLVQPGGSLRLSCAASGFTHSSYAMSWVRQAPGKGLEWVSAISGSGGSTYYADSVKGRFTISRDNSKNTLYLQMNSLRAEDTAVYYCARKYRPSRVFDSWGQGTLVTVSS
VL: SYELTQPPSVSVAPGQTARITCSGDALGDKYASWYQQKPGQAPVLVIYEDSKRPSGIPERFSGSNSGNTATLTISGTQAEDEADYYCQSNDADSVWVFGGGTKLTVLG
B2: CM-3 (antibody, human IgG4 S228P, lambda, V domains shown)
VH: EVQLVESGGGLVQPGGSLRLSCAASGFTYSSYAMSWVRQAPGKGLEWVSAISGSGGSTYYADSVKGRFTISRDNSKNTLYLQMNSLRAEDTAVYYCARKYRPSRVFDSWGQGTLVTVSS
VL: B1 VL
B3: CM-4 (antibody, human IgG4 S228P, lambda, V domains shown)
VH: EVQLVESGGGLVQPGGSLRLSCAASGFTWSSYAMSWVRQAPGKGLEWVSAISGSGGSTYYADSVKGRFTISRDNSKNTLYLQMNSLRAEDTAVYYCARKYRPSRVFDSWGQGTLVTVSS
VL: B1 VL
B4: CM-5 (antibody, human IgG4 S228P, lambda, V domains shown)
VH: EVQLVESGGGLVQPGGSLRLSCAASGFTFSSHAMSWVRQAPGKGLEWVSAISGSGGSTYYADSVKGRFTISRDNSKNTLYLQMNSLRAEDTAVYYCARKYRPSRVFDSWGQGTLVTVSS
VL: B1 VL
B5: CM-6 (antibody, human IgG4 S228P, lambda, V domains shown)
VH: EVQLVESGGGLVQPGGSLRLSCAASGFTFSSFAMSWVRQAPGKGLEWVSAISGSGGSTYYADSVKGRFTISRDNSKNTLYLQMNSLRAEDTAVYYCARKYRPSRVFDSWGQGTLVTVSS
VL: B1 VL
B6: CM-7 (antibody, human IgG4 S228P, lambda, V domains shown)
VH: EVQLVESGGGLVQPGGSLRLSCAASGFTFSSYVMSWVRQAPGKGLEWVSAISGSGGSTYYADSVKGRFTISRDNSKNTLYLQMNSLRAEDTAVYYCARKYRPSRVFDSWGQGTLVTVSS
VL: B1 VL
B7: CM-8 (antibody, human IgG4 S228P, lambda, V domains shown)
VH: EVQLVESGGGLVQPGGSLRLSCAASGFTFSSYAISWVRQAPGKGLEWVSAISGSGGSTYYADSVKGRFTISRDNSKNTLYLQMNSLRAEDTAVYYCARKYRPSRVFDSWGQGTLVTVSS
VL: B1 VL
B8: CM-9 (antibody, human IgG4 S228P, lambda, V domains shown)
VH: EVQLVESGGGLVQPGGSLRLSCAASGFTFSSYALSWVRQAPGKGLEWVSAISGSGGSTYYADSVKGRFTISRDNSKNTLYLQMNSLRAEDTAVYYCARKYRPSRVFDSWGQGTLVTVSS
VL: B1 VL
B9: CM-10 (antibody, human IgG4 S228P, lambda, V domains shown)
VH: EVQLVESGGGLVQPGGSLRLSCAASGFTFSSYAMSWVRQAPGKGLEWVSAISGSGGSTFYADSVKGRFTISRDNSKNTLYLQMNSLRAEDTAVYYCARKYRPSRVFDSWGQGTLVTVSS
VL: B1 VL
B10: CM-11 (antibody, human IgG4 S228P, lambda, V domains shown)
VH: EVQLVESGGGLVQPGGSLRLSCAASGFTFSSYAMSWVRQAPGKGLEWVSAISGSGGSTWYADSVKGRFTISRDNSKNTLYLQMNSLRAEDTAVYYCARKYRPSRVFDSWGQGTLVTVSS
VL: B1 VL
B11: CM-12 (antibody, human IgG4 S228P, lambda, V domains shown)
VH: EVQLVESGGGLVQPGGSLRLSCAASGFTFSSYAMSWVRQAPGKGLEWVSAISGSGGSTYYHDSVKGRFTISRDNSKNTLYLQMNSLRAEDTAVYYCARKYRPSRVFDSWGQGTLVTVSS
VL: B1 VL
B12: CM-13 (antibody, human IgG4 S228P, lambda, V domains shown)
VH: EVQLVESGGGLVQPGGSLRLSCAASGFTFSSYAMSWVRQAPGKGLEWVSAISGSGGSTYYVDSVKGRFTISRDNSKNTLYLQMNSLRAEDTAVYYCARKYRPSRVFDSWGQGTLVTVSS
VL: B1 VL
B13: CM-14 (antibody, human IgG4 S228P, lambda, V domains shown)
VH: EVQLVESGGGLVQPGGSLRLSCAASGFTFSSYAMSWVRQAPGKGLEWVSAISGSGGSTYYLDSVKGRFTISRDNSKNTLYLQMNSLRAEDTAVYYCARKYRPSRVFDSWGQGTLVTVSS
VL: B1 VL
B14: CM-15 (antibody, human IgG4 S228P, lambda, V domains shown)
VH: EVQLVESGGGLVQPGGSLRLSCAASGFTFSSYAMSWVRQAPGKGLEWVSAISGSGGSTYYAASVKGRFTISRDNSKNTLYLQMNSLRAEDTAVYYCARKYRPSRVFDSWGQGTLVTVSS
VL: B1 VL
B15: CM-16 (antibody, human IgG4 S228P, lambda, V domains shown)
VH: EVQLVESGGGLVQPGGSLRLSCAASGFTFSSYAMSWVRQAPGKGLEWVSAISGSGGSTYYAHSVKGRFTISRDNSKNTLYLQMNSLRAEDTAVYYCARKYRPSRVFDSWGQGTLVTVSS
VL: B1 VL
B16: CM-17 (antibody, human IgG4 S228P, lambda, V domains shown)
VH: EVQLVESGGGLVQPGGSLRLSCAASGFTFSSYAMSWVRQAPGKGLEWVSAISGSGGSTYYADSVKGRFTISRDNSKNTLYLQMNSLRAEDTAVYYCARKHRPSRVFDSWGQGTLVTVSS
VL: B1 VL
B17: CM-18 (antibody, human IgG4 S228P, lambda, V domains shown)
VH: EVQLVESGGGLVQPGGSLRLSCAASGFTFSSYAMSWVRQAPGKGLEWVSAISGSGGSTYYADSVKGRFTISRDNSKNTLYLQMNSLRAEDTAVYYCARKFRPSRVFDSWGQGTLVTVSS
VL: B1 VL
B18: CM-19 (antibody, human IgG4 S228P, lambda, V domains shown)
VH: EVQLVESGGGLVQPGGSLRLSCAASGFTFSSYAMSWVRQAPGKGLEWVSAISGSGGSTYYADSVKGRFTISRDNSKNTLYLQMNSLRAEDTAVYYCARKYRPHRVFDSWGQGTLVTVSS
VL: B1 VL
B19: CM-20 (antibody, human IgG4 S228P, lambda, V domains shown)
VH: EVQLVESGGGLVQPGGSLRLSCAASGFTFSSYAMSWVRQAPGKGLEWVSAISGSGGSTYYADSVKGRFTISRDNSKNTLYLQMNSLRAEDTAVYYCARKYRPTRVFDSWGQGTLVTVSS
VL: B1 VL
B20: CM-21 (antibody, human IgG4 S228P, lambda, V domains shown)
VH: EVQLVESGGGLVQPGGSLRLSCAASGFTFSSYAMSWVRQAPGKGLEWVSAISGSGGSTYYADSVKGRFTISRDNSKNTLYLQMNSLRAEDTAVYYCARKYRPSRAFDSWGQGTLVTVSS
VL: B1 VL
B21: CM-22 (antibody, human IgG4 S228P, lambda, V domains shown)
VH: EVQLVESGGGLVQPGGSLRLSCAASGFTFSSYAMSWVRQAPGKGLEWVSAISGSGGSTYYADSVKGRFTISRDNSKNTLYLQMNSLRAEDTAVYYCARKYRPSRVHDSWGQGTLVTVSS
VL: B1 VL
B22: CM-23 (antibody, human IgG4 S228P, lambda, V domains shown)
VH: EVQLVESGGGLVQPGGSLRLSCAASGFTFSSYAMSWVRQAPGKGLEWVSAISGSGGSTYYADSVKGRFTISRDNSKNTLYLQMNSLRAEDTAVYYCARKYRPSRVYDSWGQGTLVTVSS
VL: B1 VL
B23: CM-24 (antibody, human IgG4 S228P, lambda, V domains shown)
VH: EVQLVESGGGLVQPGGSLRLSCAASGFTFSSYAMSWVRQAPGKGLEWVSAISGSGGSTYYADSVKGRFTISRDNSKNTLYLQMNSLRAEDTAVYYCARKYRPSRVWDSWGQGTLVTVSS
VL: B1 VL
B24: CM-25 (antibody, human IgG4 S228P, lambda, V domains shown)
VH: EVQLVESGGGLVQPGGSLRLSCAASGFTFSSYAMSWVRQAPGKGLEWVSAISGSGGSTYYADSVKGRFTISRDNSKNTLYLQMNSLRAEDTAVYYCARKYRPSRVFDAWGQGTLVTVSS
VL: B1 VL
B25: CM-26 (antibody, human IgG4 S228P, lambda, V domains shown)
VH: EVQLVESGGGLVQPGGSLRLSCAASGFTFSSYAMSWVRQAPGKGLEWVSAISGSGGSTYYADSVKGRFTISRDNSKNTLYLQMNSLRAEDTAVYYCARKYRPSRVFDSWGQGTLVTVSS
VL: B1 VL with Y31F
B26: CM-27 (antibody, human IgG4 S228P, lambda, V domains shown)
VH: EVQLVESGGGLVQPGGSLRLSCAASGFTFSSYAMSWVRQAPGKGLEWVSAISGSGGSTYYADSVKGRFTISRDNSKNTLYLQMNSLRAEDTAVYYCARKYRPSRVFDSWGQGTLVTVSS
VL: B1 VL with E49Q
B27: CM-28 (antibody, human IgG4 S228P, lambda, V domains shown)
VH: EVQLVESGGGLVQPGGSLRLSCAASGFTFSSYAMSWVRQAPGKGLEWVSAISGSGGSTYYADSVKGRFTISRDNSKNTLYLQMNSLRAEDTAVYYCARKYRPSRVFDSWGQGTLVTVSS
VL: B1 VL with D50H
B28: CM-29 (antibody, human IgG4 S228P, lambda, V domains shown)
VH: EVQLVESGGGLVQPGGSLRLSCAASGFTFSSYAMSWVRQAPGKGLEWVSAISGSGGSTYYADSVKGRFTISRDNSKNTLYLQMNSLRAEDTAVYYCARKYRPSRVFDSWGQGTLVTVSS
VL: B1 VL with D50Q
B29: CM-30 (antibody, human IgG4 S228P, lambda, V domains shown)
VH: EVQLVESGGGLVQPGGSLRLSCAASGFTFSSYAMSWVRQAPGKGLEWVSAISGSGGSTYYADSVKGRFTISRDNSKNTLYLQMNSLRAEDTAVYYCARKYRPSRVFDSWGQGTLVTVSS
VL: B1 VL with S51A
B30: CM-31 (antibody, human IgG4 S228P, lambda, V domains shown)
VH: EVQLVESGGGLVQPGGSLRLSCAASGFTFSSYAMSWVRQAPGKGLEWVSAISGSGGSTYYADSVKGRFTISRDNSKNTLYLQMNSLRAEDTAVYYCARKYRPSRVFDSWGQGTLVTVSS
VL: B1 VL with S51H
B31: CM-32 (antibody, human IgG4 S228P, lambda, V domains shown)
VH: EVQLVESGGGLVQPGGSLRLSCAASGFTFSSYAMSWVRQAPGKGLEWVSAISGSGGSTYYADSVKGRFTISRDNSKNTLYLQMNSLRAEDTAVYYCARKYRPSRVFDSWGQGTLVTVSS
VL: B1 VL with K52H
B32: CM-33 (antibody, human IgG4 S228P, lambda, V domains shown)
VH: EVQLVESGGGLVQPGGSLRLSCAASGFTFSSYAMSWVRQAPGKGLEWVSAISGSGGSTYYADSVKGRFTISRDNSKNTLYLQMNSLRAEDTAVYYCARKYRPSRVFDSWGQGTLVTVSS
VL: B1 VL with K52R
B33: CM-34 (antibody, human IgG4 S228P, lambda, V domains shown)
VH: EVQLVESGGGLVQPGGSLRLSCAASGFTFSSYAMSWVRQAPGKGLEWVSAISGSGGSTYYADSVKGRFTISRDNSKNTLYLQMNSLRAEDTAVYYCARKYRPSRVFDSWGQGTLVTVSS
VL: B1 VL with K52P
B34: CM-35 (antibody, human IgG4 S228P, lambda, V domains shown)
VH: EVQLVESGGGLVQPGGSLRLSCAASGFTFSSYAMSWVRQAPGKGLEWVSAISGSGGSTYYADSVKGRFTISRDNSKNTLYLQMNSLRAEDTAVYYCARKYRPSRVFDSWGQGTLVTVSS
VL: B1 VL with Q88D
B35: CM-36 (antibody, human IgG4 S228P, lambda, V domains shown)
VH: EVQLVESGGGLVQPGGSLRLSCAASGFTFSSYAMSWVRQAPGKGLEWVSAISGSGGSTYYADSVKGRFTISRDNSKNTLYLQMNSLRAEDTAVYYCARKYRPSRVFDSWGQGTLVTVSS
VL: B1 VL with A92V
B36: CM-37 (antibody, human IgG4 S228P, lambda, V domains shown)
VH: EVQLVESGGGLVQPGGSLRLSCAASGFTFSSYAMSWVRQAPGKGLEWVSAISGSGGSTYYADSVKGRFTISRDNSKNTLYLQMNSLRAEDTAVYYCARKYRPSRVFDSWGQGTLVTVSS
VL: B1 VL with A92L
B37: CM-38 (antibody, human IgG4 S228P, lambda, V domains shown)
VH: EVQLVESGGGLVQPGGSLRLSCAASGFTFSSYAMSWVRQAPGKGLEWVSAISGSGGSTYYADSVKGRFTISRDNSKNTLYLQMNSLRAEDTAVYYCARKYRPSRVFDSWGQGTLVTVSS
VL: B1 VL with A92I
B38: CM-39 (antibody, human IgG4 S228P, lambda, V domains shown)
VH: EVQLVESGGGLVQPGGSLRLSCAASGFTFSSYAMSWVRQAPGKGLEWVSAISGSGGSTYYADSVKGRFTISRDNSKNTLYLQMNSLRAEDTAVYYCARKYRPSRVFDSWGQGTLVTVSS
VL: B1 VL with S94A
B39: CM-113 (antibody, human IgG4 S228P, lambda, V domains shown)
VH: EVQLVESGGGLVQPGGSLRLSCAASGFTFSSYAMSWVRQAPGKGLEWVSAISGSGGSHYYAASVKGRFTISRDNSKNTLYLQMNSLRAEDTAVYYCARKYRPSRVFDAWGQGTLVTVSS
VL: B1 VL with G28H, S33A, S51A, S94A
B40: CM-114 (antibody, human IgG4 S228P, lambda, V domains shown)
VH: B39 VH
VL: B1 VL with D50H, S51H, S94A
B41: CM-115 (antibody, human IgG4 S228P, lambda, V domains shown)
VH: B39 VH with F29W, S31D, H58T
VL: B1 VL with S51A, S94A, V95W
B42: CM-116 (antibody, human IgG4 S228P, lambda, V domains shown)
VH: B39 VH with S31D, H58T, A108F
VL: B1 VL with S51A, S94A, V95W
B43: CM-117 (antibody, human IgG4 S228P, lambda, V domains shown)
VH: B39 VH with S31D, H58T, A108C
VL: B1 VL with S51A, S94A, V95W
B44: CM-118 (antibody, human IgG4 S228P, lambda, V domains shown)
VH: B39 VH with S31D, H58T, A108H
VL: B1 VL with S51A, S94A, V95W
B45: CM-119 (antibody, human IgG4 S228P, lambda, V domains shown)
VH: B39 VH with S31D, H58T, A108Y
VL: B1 VL with S51A, S94A, V95W

Target: T1, human S100A8/A9 heterodimeric antigen, His-tagged (hS100A8/A9-His) (human, UniProt P05109 1-93; P06702 1-114)
T1 sequence 1: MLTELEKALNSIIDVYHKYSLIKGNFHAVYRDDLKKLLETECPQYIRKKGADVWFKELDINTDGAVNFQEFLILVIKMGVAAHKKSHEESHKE
T1 sequence 2: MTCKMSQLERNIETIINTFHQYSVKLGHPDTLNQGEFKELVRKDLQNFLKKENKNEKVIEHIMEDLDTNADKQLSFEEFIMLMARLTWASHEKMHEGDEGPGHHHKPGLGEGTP
Assay: cell-based or functional assay

| Binder | IC50, inhibition of IL-6 release from hS100A8/A9-activated human PBMCs [µg/mL] |
| --- | --- |
| B1 | 0.199 |
| B2 | 0.029 |
| B3 | 0.04 |
| B4 | 0.436 |
| B5 | 0.488 |
| B6 | 0.12 |
| B7 | 0.458 |
| B8 | 1.56 |
| B9 | 0.438 |
| B10 | 0.038 |
| B11 | 0.047 |
| B12 | 0.047 |
| B13 | 2.79 |
| B14 | 0.477 |
| B15 | 0.457 |
| B16 | 0.32 |
| B17 | 0.109 |
| B18 | 0.619 |
| B19 | 0.43 |

| Binder | IC50, inhibition of IL-6 release from hS100A8/A9-activated human PBMCs [µg/mL] |
| --- | --- |
| B20 | 0.01 |
| B21 | 0.162 |
| B22 | 0.024 |
| B23 | 0.67 |
| B24 | 0.471 |
| B25 | 0.168 |
| B26 | 0.253 |
| B27 | 1.74 |
| B28 | 2 |
| B29 | 0.434 |
| B30 | 0.48 |
| B31 | 0.536 |
| B32 | 0.452 |
| B33 | 1.22 |
| B34 | 0.655 |
| B35 | 0.393 |
| B36 | 0.335 |
| B37 | 0.084 |
| B38 | 0.452 |

Target: T1, human S100A8/A9 heterodimeric antigen, …
Assay: cell-based or functional assay
Remark: another data set of the same source

| Binder | Relative IC50 (IC50 relative to CM-1), IL-6 release from hS100A8/A9-activated human PBMCs |
| --- | --- |
| B39 | 0.442 relative to CM-1 |
| B40 | 0.899 relative to CM-1 |
| B41 | 1.34 relative to CM-1 |
| B42 | 0.986 relative to CM-1 |
| B43 | 0.367 relative to CM-1 |
| B44 | 1.63 relative to CM-1 |
| B45 | 1.37 relative to CM-1 |
